Experiment [1] addresses IGF Type I receptor (IGF-1R) (UniProt P08069). As to the kind of experiment: receptor affinity (method not described), relative to wild-type insulin.
The target in experiment [2] is B isoform of the insulin receptor (UniProt P06213). As to the kind of experiment: receptor affinity (method not described), relative to wild-type human insulin.
Experiment [3] addresses T1, A isoform of the insulin receptor (UniProt P06213-2 28-1370, limits assumed).
T1 construct: Isoform A is the short isoform lacking exon 11; also called IR-A
The experiment is described as above.

The target of experiment [4] is T1, A isoform of the insulin receptor. In words: receptor-binding affinity assay (method not described; data not shown), relative to wild-type human insulin.
Substrate in experiment [5]: B isoform of the insulin receptor (UniProt P06213)
As to the kind of experiment: receptor-binding affinity assay (method not described), relative to wild-type human insulin.

The results in this text go back to US20210162014A1 (CASE WESTERN RESERVE UNIVERSITY, published 2021).

Where “and” joins values, the source holds several entries; their conditions need not be identical. Identical values can stand only once. Bridges are numbered along the chain shown (N, C = ends). Where no end group is shown, it is not given here.

Turning to “59-mer SCI with C domain EEGSRRSR ('this SCI' of paragraph 30) (ligand)”, the fold reduction in affinity relative to wild-type insulin in experiment [1] worked out at 10 fold. Also, the affinity relative to wild-type human insulin (percent) in experiment [2] and in experiment [3] was 10 to 150% in each case.

B1: 4SS 81-04 (57mer single-chain insulin analogue containing a fourth disulfide bridge between residues B4 and A10) (ligand)
chain: FVNCHLCGSHLVEALYLVCGERGFFYTDPTEEGPRRGIVEQCCHSCCSLEQLENYCN
modifications: disulfide 19-56, 4-46, 42-47, 7-43
notes: Single-chain insulin analogue, 57 residues, C domain EEGPRR; also called analogue 4SS 81-04
Consider B1, for which the “affinity relative to human insulin (percent)” value in experiment [4] amounted to 120 percent. Moreover, in experiment [5], the fold reduction in affinity relative to wild-type human insulin is 5 fold and 10 fold.
